Consider 15 molecules from patent US20220315670A1 (RESEARCH FOUNDATION FOR THE STATE UNIVERSITY OF NEW YORK, published 2022).

Experiment [1] concerns the target T1, trastuzumab (Herceptin).
T1 construct: also called Tmab; not shown: the constant regions
In words: ELISA screen of colony lysate on coated trastuzumab, 40 h with 1 uM 1HE, high-affinity panning.

Experiment [2] deals with T1, trastuzumab (Herceptin). In words: competition on SKOV3 cells, 200 pM 125I-trastuzumab with increasing 1HE, 4 C, 90 minutes, gamma counting. The procedure:
(§1) SKOV3 cells (ATCC, HTB-77) were grown in complete McCoys 5a media to confluency in a T75 flask and dissociated using 50 μM EDTA. […] Cells were incubated at 4° C. for 90 minutes to reach binding equilibrium followed by 4 washes with 1 mL of 1% BSA PBS buffer to remove non-specific radioactivity. Cell-associated radioactivity was assessed through gamma counting.
(§2) An optimal range was 10 pM to 10 nM.

Experiment [3] deals with T1, trastuzumab (Herceptin). Briefly: competition on SKOV3 cells, 125I-trastuzumab with increasing 1HE, cell-associated radioactivity. The method, then:
Points represent the mean of triplicate samples with standard deviation error bars.
as §1

Experiment [4] concerns the target T1, trastuzumab (Herceptin). Briefly: dissociation ELISA on covalently immobilised trastuzumab. The procedure: (§3) Individual mutants were expressed and purified using a nickel chromatography resin, as previously described (16). […] The following day, unreacted sites were blocked with 10 mM ethanolamine in a 100 mM sodium bicarbonate buffer pH 9.5 for one hour. Purified mutants were incubated for one hour and subsequently washed three times with wash buffer. Following washing, 0.1% BSA PBS solution was added to the initial timepoint wells. […] At individual time points, the buffer in the time point wells was removed by pipetting, and the wells washed three times with wash buffer and 0.1% BSA PBS added. At the terminal time point, all wells were washed three times with wash buffer, and secondary antibodies added at the dilutions listed above for one hour at room temperature. Following secondary incubation, plates were washed three times with wash buffer and three times with dH₂O. 250 μl of 4 mg/ml PnPP in a 10 mM diethanolamine pH 9.8 buffer was added to each well, and absorbance values read for 10 minutes at 30-second intervals. The change in absorbance per minute for each well was divided by the average change in absorbance per minute for the initial time point wells, and the resulting dissociation curves fit to a monoexponential decay function in GraphPad Prism 7 (GraphPad, San Diego, Calif.). Each time point was run in triplicate for each mutant.

In experiment [5] the target is T1, trastuzumab (Herceptin). Briefly: SPR, trastuzumab immobilized by amine coupling, 1HE at 10, 20 and 35 nM, 1:1 Langmuir fit. The method, then:
(§4) A mobile phase of 0.05% Tween-20 PBS pH 7.4 was used at a flow rate of 25 μL/minute. […] Association and dissociation rate constants were determined using a 1:1 Langmuir binding model in the biosensor data analysis software Scrubber (BioLogic Software, Canberra, Australia).
as §2
For orientation: Surface plasmon resonance follows binding to a sensor surface in real time, without labels.

Experiment [6] deals with T1, trastuzumab (Herceptin). In words: inferred from the IC50 of the SKOV3 cell competition assay with 200 pM 125I-trastuzumab. The procedure:
as §1, §2

In experiment [7] the target is T1, trastuzumab (Herceptin). Briefly: SPR, trastuzumab immobilized by amine coupling, 10-hour dissociation, 1:1 Langmuir fit. The method, then: as §4, §2
The target in experiment [8] is T1, trastuzumab (Herceptin). Briefly: dissociation ELISA on covalently immobilised trastuzumab, 1 uM 1HE in the buffer. The procedure: as §3
(In an ELISA, binding on a coated surface is turned into a signal by an enzyme label.)

The target of experiment [9] is T1, trastuzumab (Herceptin). Briefly: dissociation ELISA on covalently immobilised trastuzumab, 500 nM trastuzumab in the buffer. The procedure:
as §3

The target in experiment [10] is T1, trastuzumab (Herceptin). In words: ELISA screen of colony lysate on coated trastuzumab, low-affinity panning.
Experiment [11] concerns the target T1, trastuzumab (Herceptin). In words: dissociation ELISA, trastuzumab covalently immobilized, 1 uM 1HE in buffer to block rebinding, monoexponential fit. The procedure:
as §3

The IC50 is the midpoint of a concentration-inhibition curve. The Kd is a measure of binding affinity in units of concentration.

Where a chain is given by its changes, count along the chain named. In names and notes the source's numbering stands. Where only a bound is given, the exact number is not on record here.

B1: 2D7 (VHH)
VHH: EVQLVESGGGLVQAGDSLTLSCAASGRTFSSVAMGWFRQAPGKERKFVANISWNGDSTYYTDSVKGRFTISRDNAKNTVYLQMSSLKPEDTAVYYCAADVRWAGDGHRADYWGQGTQVTVSS
As for B1, the estimated half-life with trastuzumab (Herceptin) [1] was 43.5 h.

B2: 1HE, anti-idiotypic camelid single domain antibody against trastuzumab (VHH)
VHH: B1 VHH with A103T
notes: also called wild-type 1HE; cold-1HE
Consider B2, for which the IC50 with trastuzumab (Herceptin) [2] stood at 0.122 nM; with trastuzumab (Herceptin) [3], 0.129 nM. This molecule also showed a T1/2 with trastuzumab (Herceptin) [4] of 17.4 h. The figures for the dissociation constant (Kd) with trastuzumab (Herceptin) [5] and with trastuzumab (Herceptin) [6] were 0.0335 nM and not above 0.122 nM, respectively. The molecule also gave a half-life of dissociation with trastuzumab (Herceptin) [7] of 26.6 h.

B3: 2E11 (VHH)
VHH: B1 VHH with K87E, A103T
notes: also called 1HE mutant 2E11
For B3, the estimated half-life with trastuzumab (Herceptin) [1] was 17.7 h.

B4: 2D11 (VHH)
VHH: B1 VHH with K76R, A103T
notes: also called 1HE mutant 2D11
As to B4, in the experiment with trastuzumab (Herceptin) [8], the T1/2 turned out to be 8.8 h. In the experiment with trastuzumab (Herceptin) [1], the estimated half-life is 29.6 h.

B5: 2H2 (VHH)
VHH: B1 VHH with G9D, T28A, A103T
notes: also called 1HE mutant 2H2
In the experiment with trastuzumab (Herceptin) [8], B5 came in with a T1/2 of 5.4 h. In the experiment with trastuzumab (Herceptin) [1], the estimated half-life was 26.9 h.

B6: 2C4 (VHH)
VHH: B1 VHH with Q117L
notes: also called 1HE mutant 2C4
In turn, B6 showed a T1/2 in the experiment with trastuzumab (Herceptin) [8] of 84.1 h.

B7: 2A4 (VHH)
VHH: B1 VHH with T58A, A103T
notes: also called 1HE mutant 2A4
Molecule B7 yielded a T1/2 in the experiment with trastuzumab (Herceptin) [8] of 187 h. In the experiment with trastuzumab (Herceptin) [1], the estimated half-life is 70.8 h.

B8: 2F9 (VHH)
VHH: B1 VHH with A103T, D105E
notes: also called 1HE mutant 2F9
B8: the T1/2 in the experiment with trastuzumab (Herceptin) [8] was determined as 55.5 h. Also, the estimated half-life in the experiment with trastuzumab (Herceptin) [1] is 30.8 h.

B9: 2G2 (VHH)
VHH: B1 VHH with A103T, Y111N
Take B9: in the experiment with trastuzumab (Herceptin) [1], the estimated half-life was 15.7 h.

B10: 1G1 (VHH)
VHH: B1 VHH with N54D, D56G, N74S, A103T
Regarding B10, in the experiment with trastuzumab (Herceptin) [9], the T1/2 worked out at 12.1 h.

B11: 1C3 (VHH)
VHH: B1 VHH with A97V, A103T
In the experiment with trastuzumab (Herceptin) [9], B11 came in with a T1/2 of 12.1 h.

B12: 1F3 (VHH)
VHH: B1 VHH with D56Y, A103T
In the experiment with trastuzumab (Herceptin) [9], B12 came in with a T1/2 of 5.1 h.

B13: 1E10 (VHH)
VHH: B1 VHH with D16A, S17G, A103T
notes: also called 1HE mutant 1E10
With B13, the estimated half-life in the experiment with trastuzumab (Herceptin) [10] is 19.3 h.

B14: 1G11 (VHH)
VHH: B1 VHH with G10D, S31G, D56V, A103T
B14 yielded a T1/2 with trastuzumab (Herceptin) [9] of 35.1 h.

B15: 1HE mutant 2E10 (L18Q, T103A) (VHH)
VHH: B1 VHH with L18Q
With B15, in the experiment with trastuzumab (Herceptin) [11], the estimated binding half-life is 20.1 days. The estimated half-life in the experiment with trastuzumab (Herceptin) [1] is 35.7 h.
